One assay deals with T1, Stau dsRBD5 Y971K (Drosophila, UniProt P25159 951-1018).
T1 chain: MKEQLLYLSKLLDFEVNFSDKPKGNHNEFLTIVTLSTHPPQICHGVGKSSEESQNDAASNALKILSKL
The assay can be described thus: ITC. (Isothermal titration calorimetry measures the heat released or taken up as one component is titrated into another.)

For assay [1], the target named is T2, Trx-Stau951-1,018 (Drosophila, UniProt P25159 951-1018).
T2 chain: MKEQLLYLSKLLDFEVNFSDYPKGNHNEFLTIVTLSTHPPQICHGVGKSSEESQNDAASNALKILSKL
As to the kind of experiment: ITC; Mira fragments injected into Stau fragments; 25 °C; 50 mM Tris pH 8.0, 100 mM NaCl, 1 mM EDTA.

Assay [2] has as its target T2, Trx-Stau951-1,018. The assay can be described thus: ITC.

The source of these data is paper PMC4600727 (2015).

B1: Trx-Mira514–595 (domain or fragment)
chain: NYQLTLTNTRATVNILMERLKKSDADVEQYRAELESVQLAKGALEQSYLVLQADAEQLRQQLTESQDALNALRSSSQTLQSE
As for B1, the Kd came to 8.7 µM in the assay with Stau dsRBD5 Y971K and 1.07 µM with Trx-Stau951-1,018 [1].

B2: Mira514–595 R532A (domain or fragment)
chain: NYQLTLTNTRATVNILMEALKKSDADVEQYRAELESVQLAKGALEQSYLVLQADAEQLRQQLTESQDALNALRSSSQTLQSE
B2 yielded a Kd with Trx-Stau951-1,018 [2] of 72.5 µM.

Broadly, the Kd is the free concentration of one partner at which half of the binding sites on the other are occupied at equilibrium, for simple one-to-one binding. High values mean lower affinity, low ones higher affinity.
